Measured values published in US20180273587A1 (AILERON THERAPEUTICS, published 2018).
Starred links: 1 amine or outer side, 2 acyl side, 3 side chain; linkers in the order of their positions; H or OH if unused. Positions of bridges follow the written chain, without caps; N, C: chain ends. Non-standard residues stand in square brackets, D forms with d. hhL = hhLeu, CC(C)CCC[C@H](N[*:1])C(=O)[*:2]; R8 = C=CCCCCCC[C@@](C)(N)C(=O)O; Cha = N[C@@H](CC1CCCCC1)C(=O)O; S5 = C=CCCC[C@](C)(N)C(=O)O

B1: SEQ ID NO: 1669 (peptide)
peptide: Ac-IWIAQALR[R8]FGDAFN[S5]YYA-NH2
modifications: staple 9-16
SMILES: CC[C@H](C)[C@H](NC(C)=O)C(=O)N[C@@H](Cc1c[nH]c2ccccc12)C(=O)N[C@H](C(=O)N[C@@H](C)C(=O)N[C@@H](CCC(N)=O)C(=O)N[C@@H](C)C(=O)N[C@@H](CC(C)C)C(=O)N[C@@H](CCCNC(=N)N)C(=O)N[C@]1(C)CCCCCCC=CCCC[C@@](C)(C(=O)N[C@@H](Cc2ccc(O)cc2)C(=O)N[C@@H](Cc2ccc(O)cc2)C(=O)N[C@@H](C)C(N)=O)NC(=O)[C@H](CC(N)=O)NC(=O)[C@H](Cc2ccccc2)NC(=O)[C@H](C)NC(=O)[C@H](CC(=O)O)NC(=O)CNC(=O)[C@H](Cc2ccccc2)NC1=O)[C@@H](C)CC
B2: SEQ ID NO: 1670 (peptide)
peptide: Ac-IWIAQALR[R8]FGDQFN[S5]YYA-NH2
modifications: staple 9-16
SMILES: CC[C@H](C)[C@H](NC(C)=O)C(=O)N[C@@H](Cc1c[nH]c2ccccc12)C(=O)N[C@H](C(=O)N[C@@H](C)C(=O)N[C@@H](CCC(N)=O)C(=O)N[C@@H](C)C(=O)N[C@@H](CC(C)C)C(=O)N[C@@H](CCCNC(=N)N)C(=O)N[C@]1(C)CCCCCCC=CCCC[C@@](C)(C(=O)N[C@@H](Cc2ccc(O)cc2)C(=O)N[C@@H](Cc2ccc(O)cc2)C(=O)N[C@@H](C)C(N)=O)NC(=O)[C@H](CC(N)=O)NC(=O)[C@H](Cc2ccccc2)NC(=O)[C@H](CCC(N)=O)NC(=O)[C@H](CC(=O)O)NC(=O)CNC(=O)[C@H](Cc2ccccc2)NC1=O)[C@@H](C)CC
B3: SEQ ID NO: 1672 (peptide)
peptide: Ac-IWFAQALR[R8]IGDQFN[S5]YYA-NH2
modifications: staple 9-16
SMILES: CC[C@H](C)[C@H](NC(C)=O)C(=O)N[C@@H](Cc1c[nH]c2ccccc12)C(=O)N[C@@H](Cc1ccccc1)C(=O)N[C@@H](C)C(=O)N[C@@H](CCC(N)=O)C(=O)N[C@@H](C)C(=O)N[C@@H](CC(C)C)C(=O)N[C@@H](CCCNC(=N)N)C(=O)N[C@]1(C)CCCCCCC=CCCC[C@@](C)(C(=O)N[C@@H](Cc2ccc(O)cc2)C(=O)N[C@@H](Cc2ccc(O)cc2)C(=O)N[C@@H](C)C(N)=O)NC(=O)[C@H](CC(N)=O)NC(=O)[C@H](Cc2ccccc2)NC(=O)[C@H](CCC(N)=O)NC(=O)[C@H](CC(=O)O)NC(=O)CNC(=O)[C@H]([C@@H](C)CC)NC1=O
B4: SEQ ID NO: 1678 (peptide)
peptide: Ac-IW[hhL]AQALR[R8]IGDAFN[S5]YYA-NH2
modifications: staple 9-16
SMILES: CC[C@H](C)[C@H](NC(C)=O)C(=O)N[C@@H](Cc1c[nH]c2ccccc12)C(=O)N[C@@H](CCCC(C)C)C(=O)N[C@@H](C)C(=O)N[C@@H](CCC(N)=O)C(=O)N[C@@H](C)C(=O)N[C@@H](CC(C)C)C(=O)N[C@@H](CCCNC(=N)N)C(=O)N[C@]1(C)CCCCCCC=CCCC[C@@](C)(C(=O)N[C@@H](Cc2ccc(O)cc2)C(=O)N[C@@H](Cc2ccc(O)cc2)C(=O)N[C@@H](C)C(N)=O)NC(=O)[C@H](CC(N)=O)NC(=O)[C@H](Cc2ccccc2)NC(=O)[C@H](C)NC(=O)[C@H](CC(=O)O)NC(=O)CNC(=O)[C@H]([C@@H](C)CC)NC1=O
notes: also called Ac-IWhhLAQALR$r8IGDAFN$YYA-NH2
B5: SEQ ID NO: 1676 (peptide)
peptide: Ac-IWIAQALR[R8]IGDQFA[S5]YYA-NH2
modifications: staple 9-16
SMILES: CC[C@H](C)[C@H](NC(C)=O)C(=O)N[C@@H](Cc1c[nH]c2ccccc12)C(=O)N[C@H](C(=O)N[C@@H](C)C(=O)N[C@@H](CCC(N)=O)C(=O)N[C@@H](C)C(=O)N[C@@H](CC(C)C)C(=O)N[C@@H](CCCNC(=N)N)C(=O)N[C@]1(C)CCCCCCC=CCCC[C@@](C)(C(=O)N[C@@H](Cc2ccc(O)cc2)C(=O)N[C@@H](Cc2ccc(O)cc2)C(=O)N[C@@H](C)C(N)=O)NC(=O)[C@H](C)NC(=O)[C@H](Cc2ccccc2)NC(=O)[C@H](CCC(N)=O)NC(=O)[C@H](CC(=O)O)NC(=O)CNC(=O)[C@H]([C@@H](C)CC)NC1=O)[C@@H](C)CC
B6: SEQ ID NO: 1671 (peptide)
peptide: Ac-IWFAQALR[R8]IGDAFN[S5]YYA-NH2
modifications: staple 9-16
SMILES: CC[C@H](C)[C@H](NC(C)=O)C(=O)N[C@@H](Cc1c[nH]c2ccccc12)C(=O)N[C@@H](Cc1ccccc1)C(=O)N[C@@H](C)C(=O)N[C@@H](CCC(N)=O)C(=O)N[C@@H](C)C(=O)N[C@@H](CC(C)C)C(=O)N[C@@H](CCCNC(=N)N)C(=O)N[C@]1(C)CCCCCCC=CCCC[C@@](C)(C(=O)N[C@@H](Cc2ccc(O)cc2)C(=O)N[C@@H](Cc2ccc(O)cc2)C(=O)N[C@@H](C)C(N)=O)NC(=O)[C@H](CC(N)=O)NC(=O)[C@H](Cc2ccccc2)NC(=O)[C@H](C)NC(=O)[C@H](CC(=O)O)NC(=O)CNC(=O)[C@H]([C@@H](C)CC)NC1=O
B7: SEQ ID NO: 1674 (peptide)
peptide: Ac-IWIAQALR[R8]IGNAFN[S5]YYA-NH2
modifications: staple 9-16
SMILES: CC[C@H](C)[C@H](NC(C)=O)C(=O)N[C@@H](Cc1c[nH]c2ccccc12)C(=O)N[C@H](C(=O)N[C@@H](C)C(=O)N[C@@H](CCC(N)=O)C(=O)N[C@@H](C)C(=O)N[C@@H](CC(C)C)C(=O)N[C@@H](CCCNC(=N)N)C(=O)N[C@]1(C)CCCCCCC=CCCC[C@@](C)(C(=O)N[C@@H](Cc2ccc(O)cc2)C(=O)N[C@@H](Cc2ccc(O)cc2)C(=O)N[C@@H](C)C(N)=O)NC(=O)[C@H](CC(N)=O)NC(=O)[C@H](Cc2ccccc2)NC(=O)[C@H](C)NC(=O)[C@H](CC(N)=O)NC(=O)CNC(=O)[C@H]([C@@H](C)CC)NC1=O)[C@@H](C)CC
B8: SEQ ID NO: 1677 (peptide)
peptide: Ac-IW[Cha]AQALR[R8]IGDAFN[S5]YYA-NH2
modifications: staple 9-16
SMILES: CC[C@H](C)[C@H](NC(C)=O)C(=O)N[C@@H](Cc1c[nH]c2ccccc12)C(=O)N[C@@H](CC1CCCCC1)C(=O)N[C@@H](C)C(=O)N[C@@H](CCC(N)=O)C(=O)N[C@@H](C)C(=O)N[C@@H](CC(C)C)C(=O)N[C@@H](CCCNC(=N)N)C(=O)N[C@]1(C)CCCCCCC=CCCC[C@@](C)(C(=O)N[C@@H](Cc2ccc(O)cc2)C(=O)N[C@@H](Cc2ccc(O)cc2)C(=O)N[C@@H](C)C(N)=O)NC(=O)[C@H](CC(N)=O)NC(=O)[C@H](Cc2ccccc2)NC(=O)[C@H](C)NC(=O)[C@H](CC(=O)O)NC(=O)CNC(=O)[C@H]([C@@H](C)CC)NC1=O
notes: also called Ac-IWChaAQALR$r8IGDAFN$YYA-NH2

These binders were tested against T1, MCL-1 (UniProt Q07820 172-327, limits assumed) (assay: Ki table, method not stated).
T1 construct: also called Myeloid cell leukemia 1
T1 sequence (Q07820 172-327 limits assumed): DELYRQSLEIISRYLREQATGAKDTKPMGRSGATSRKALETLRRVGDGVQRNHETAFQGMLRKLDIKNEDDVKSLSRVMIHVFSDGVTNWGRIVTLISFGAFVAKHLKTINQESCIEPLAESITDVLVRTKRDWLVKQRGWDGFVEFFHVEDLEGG

Ki [nM] | Binder
27.8 | B1
74.1 | B2
29.3 | B3
21.2 | B4
22.8 | B5
22 | B6
195 | B7
43.8 | B8

These binders were tested against BCL-XL (UniProt Q07817 1-209) (assay: Ki table, method not stated).
Chain of BCL-XL (Q07817 1-209): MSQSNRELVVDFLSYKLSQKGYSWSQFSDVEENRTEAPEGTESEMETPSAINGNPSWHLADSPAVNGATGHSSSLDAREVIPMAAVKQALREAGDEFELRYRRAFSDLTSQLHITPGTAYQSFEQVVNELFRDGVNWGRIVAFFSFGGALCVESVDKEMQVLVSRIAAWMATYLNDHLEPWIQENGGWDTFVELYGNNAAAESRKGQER

Ki [nM] | Binder
15.8 | B1
25.6 | B2
25.9 | B3
11.9 | B4
53.5 | B5
28 | B6
416 | B7
14.4 | B8

These binders were tested against BCL-2 (UniProt P10415 1-217, limits assumed) (assay: Ki table, method not stated).
Chain of BCL-2 (P10415 1-217 limits assumed): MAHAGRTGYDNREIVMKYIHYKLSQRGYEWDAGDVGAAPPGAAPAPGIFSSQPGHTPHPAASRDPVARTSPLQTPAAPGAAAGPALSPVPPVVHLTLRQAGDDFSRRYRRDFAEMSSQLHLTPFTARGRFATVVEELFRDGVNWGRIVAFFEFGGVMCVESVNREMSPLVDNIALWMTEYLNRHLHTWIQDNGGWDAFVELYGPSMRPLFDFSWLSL

Ki [nM] | Binder
68.5 | B1
66.1 | B2
205 | B3
161 | B4
84.9 | B5
179 | B6
405 | B7
105 | B8
